We go through 24 substances from patent US20240398963A1 (priority 2021, published 2024).

This series is classed as physicochemical. As to conditions: 10 mM PBS buffer (pH=7.4), 37° C., 100 rpm shaker; free drug by HPLC, average release per day. How it is done: The drug release and stability experiments were run using the test compounds. About 2.5±1.0 mg/mL (with regard to conjugate) solution of each test compound was prepared with 10 mM PBS buffer (pH=7.4) in Millipore Amicon® Ultra-0.5 ml 30 k Ultrafiltration centrifuge tube. The solution was kept swelling for 1 h at room temperature and then placed in a shaker at 100 rpm, 37° C. for continuous experiment. At the same time point of each day, samples were centrifuged at 10000 rpm for 1 h. The aliquot was transferred to HPLC vial for analysis. An 0.4 mL of 10 mM PBS buffer was added into the centrifuge tube and continue the experiment.
For the HPLC analysis at each time point, the peak areas of all relevant peaks from the chromatograms were retrieved and the concentration of free drug was calculated. Average release of free drug was calculated based on the sum of free drug and numbers of experiment days. The computing equation is as below.
The sample degradation rate was calculated based on the concentration and degree of substitution (NMR) for conjugated drug with regard to the initial starting point of the experiment (at t=0). The computing equation is as below.

Regarding “Conjugate of HA and 2-((8S,9S,10R,11S,13S,14S,17R)-11,17-dihydroxy-10,13-dimethyl-3-oxo-6,7,8,9,10,11,12,13,14,15,16,17-dodecahydro-3H-cyclopenta[a]phenanthren-17-yl)-2-oxoethyl 6-aminohexanoate [Example 81]”, the Release rate is 1.71 %/day. Turning to “Conjugate of HA and 4-aminobutyl (2-((8S,9S,10R,13S,14S,17R)-17-hydroxy-10,13-dimethyl-3,11-dioxo-2,3,6,7,8,9,10,11,12,13,14,15,16,17-tetradecahydro-1H-cyclopenta[a]phenanthren-17-yl)-2-oxoethyl) carbonate [Example 66]”, the Release rate came out at 11.18 %/day. Take “Conjugate of CS and 2-((6αS,6βR,7S,8αS,8βS,11αR,12αS,12βS)-6β-fluoro-7-hydroxy-6α,8α,10,10-tetramethyl-4-oxo-1,2,4,6α,6β,7,8,8α,11α,12,12α,12β-dodecahydro-8βH-naphtho[2′,1′:4,5]indeno[1,2-d][1,3]dioxol-8β-yl)-2-oxoethyl piperazine-1-carboxylate [Example 57]”: the Release rate is 0.23 %/day. Next, “Conjugate of HA and 2-((8S,9S,10R,13S,14S,17R)-17-hydroxy-10,13-dimethyl-3,11-dioxo-2,3,6,7,8,9,10,11,12,13,14,15,16,17-tetradecahydro-1H-cyclopenta[a]phenanthren-17-yl)-2-oxoethyl 6-aminohexanoate [Example 94]”: 2.85 %/day; “Conjugate of HA and 4-aminobutyl (2-((8S,9R,10S,11S,13S,14S,16R,17R)-9-fluoro-11,17-dihydroxy-10,13,16-trimethyl-3-oxo-6,7,8,9,10,11,12,13,14,15,16,17-dodecahydro-3H-cyclopenta[a]phenanthren-17-yl)-2-oxoethyl) carbonate [Example 70]”: 3.49 %/day. Consider “Conjugate of CS and 2-((8S,9S,10R,11S,13S,14S,17R)-11,17-dihydroxy-10,13-dimethyl-3-oxo-2,3,6,7,8,9,10,11,12,13,14,15,16,17-tetradecahydro-1H-cyclopenta[a]phenanthren-17-yl)-2-oxoethyl 4-aminobutanoate [Example 39]”, for which the Release rate is reported as 0.71 %/day. Then “Conjugate of HA and 2-((6S,8S,9S,10R,11S,13S,14S,17R)-11,17-dihydroxy-6,10,13-trimethyl-3-oxo-6,7,8,9,10,11,12,13,14,15,16,17-dodecahydro-3H-cyclopenta[a]phenanthren-17-yl)-2-oxoethyl 4-aminobutanoate [Example 42]”, with 2.88 %/day; and “Conjugate of HA and 4-aminobutyl (2-((8S,9R,10S,11S,13S,14S,16S,17R)-9-fluoro-11,17-dihydroxy-10,13,16-trimethyl-3-oxo-6,7,8,9,10,11,12,13,14,15,16,17-dodecahydro-3H-cyclopenta[a]phenanthren-17-yl)-2-oxoethyl) carbonate [Example 72]”, with 7.86 %/day; and “Conjugate of HA and 5-aminopentyl (2-((8S,9S,10R,11S,13S,14S,17R)-11,17-dihydroxy-10,13-dimethyl-3-oxo-2,3,6,7,8,9,10,11,12,13,14,15,16,17-tetradecahydro-1H-cyclopenta[a]phenanthren-17-yl)-2-oxoethyl) carbonate [Example 90]”, with 4.56 %/day. “Conjugate of CS and 2-((8S,9S,10R,13S,14S,17R)-17-hydroxy-10,13-dimethyl-3,11-dioxo-2,3,6,7,8,9,10,11,12,13,14,15,16,17-tetradecahydro-1H-cyclopenta[a]phenanthren-17-yl)-2-oxoethyl 4-aminobutanoate [Example 41]” registered a Release rate of 1.79 %/day. Then “Conjugate of HA and 2-((8S,9S,10R,13S,14S,17R)-17-hydroxy-10,13-dimethyl-3,11-dioxo-6,7,8,9,10,11,12,13,14,15,16,17-dodecahydro-3H-cyclopenta[a]phenanthren-17-yl)-2-oxoethyl 5-aminopentanoate [Example 74]”, with 4.06 %/day; and “Conjugate of HA and 4-aminobutyl (2-((6S,8S,9S,10R,11S,13S,14S,17R)-11,17-dihydroxy-6,10,13-trimethyl-3-oxo-6,7,8,9,10,11,12,13,14,15,16,17-dodecahydro-3H-cyclopenta[a]phenanthren-17-yl)-2-oxoethyl) carbonate [Example 68]”, with 8.02 %/day. In turn, “Conjugate of CS and 2-((6S,8S,9S,10R,11S,13S,14S,17R)-11,17-dihydroxy-6,10,13-trimethyl-3-oxo-6,7,8,9,10,11,12,13,14,15,16,17-dodecahydro-3H-cyclopenta[a]phenanthren-17-yl)-2-oxoethyl 4-aminobutanoate [Example 43]” came in with a Release rate of 1.07 %/day. Next, “Conjugate of CS and 4-aminobutyl (2-((8S,9S,10R,13S,14S,17R)-17-hydroxy-10,13-dimethyl-3,11-dioxo-6,7,8,9,10,11,12,13,14,15,16,17-dodecahydro-3H-cyclopenta[a]phenanthren-17-yl)-2-oxoethyl) carbonate [Example 61]”: 7.26 %/day. The substance “Conjugate of HA and 4-aminobutyl (2-((8S,9S,10R,11S,13S,14S,17R)-11,17-dihydroxy-10,13-dimethyl-3-oxo-2,3,6,7,8,9,10,11,12,13,14,15,16,17-tetradecahydro-1H-cyclopenta[a]phenanthren-17-yl)-2-oxoethyl) carbonate [Example 64]” displayed a Release rate of 7.61 %/day. “Conjugate of CS (Chondroitin sulfate) and 2-aminopropyl (2-((6αS,6βR,7S,8αS,8βS,11αR,12αS,12βS)-6β-fluoro-7-hydroxy-6α,8α,10,10-tetramethyl-4-oxo-1,2,4,6α,6β,7,8,8α,11α,12,12α,12β-dodecahydro-8βH-naphtho[2′,1′:4,5]indeno[1,2-d][1,3]dioxol-8β-yl)-2-oxoethyl) carbonate [Example 53]”: the Release rate was 1.49 %/day.

“Conjugate of HA and 2-((8S,9R,10S,11S,13S,14S,16R,17R)-9-fluoro-11,17-dihydroxy-10,13,16-trimethyl-3-oxo-6,7,8,9,10,11,12,13,14,15,16,17-dodecahydro-3H-cyclopenta[a]phenanthren-17-yl)-2-oxoethyl 5-aminopentanoate [Example 79]” registered a Release rate of 4.42 %/day. The substance “Conjugate of HA and 2-((8S,9R,10S,11S,13S,14S,16S,17R)-9-fluoro-11,17-dihydroxy-10,13,16-trimethyl-3-oxo-6,7,8,9,10,11,12,13,14,15,16,17-dodecahydro-3H-cyclopenta[a]phenanthren-17-yl)-2-oxoethyl 4-aminobutanoate [Example 46]” had a Release rate of 2.95 %/day. “Conjugate of CS and 4-aminobutyl (2-((8S,9R,10S,11S,13S,14S,16S,17R)-9-fluoro-11,17-dihydroxy-10,13,16-trimethyl-3-oxo-6,7,8,9,10,11,12,13,14,15,16,17-dodecahydro-3H-cyclopenta[a]phenanthren-17-yl)-2-oxoethyl) carbonate [Example 73]” gave a Release rate of 13.44 %/day. Then “Conjugate of CS and 2-((6αS,6βR,7S,8αS,8βS,11αR,12αS,12βS)-6β-fluoro-7-hydroxy-6α,8α,10,10-tetramethyl-4-oxo-1,2,4,6α,6β,7,8,8α,11α,12,12α,12β-dodecahydro-8βH-naphtho[2′,1′:4,5]indeno[1,2-d][1,3]dioxol-8β-yl)-2-oxoethyl 14-amino-3,6,9,12-tetraoxatetradecanoate [Example 51]”, with 7.21 %/day. Regarding “Conjugate of CS and 4-aminobutyl (2-((6S,8S,9S,10R,11S,13S,14S,17R)-11,17-dihydroxy-6,10,13-trimethyl-3-oxo-6,7,8,9,10,11,12,13,14,15,16,17-dodecahydro-3H-cyclopenta[a]phenanthren-17-yl)-2-oxoethyl) carbonate [Example 69]”, the Release rate came out at 4.62 %/day. As for “Conjugate of HA and 2-((8S,9S,10R,11S,13S,14S,17R)-11,17-dihydroxy-10,13-dimethyl-3-oxo-6,7,8,9,10,11,12,13,14,15,16,17-dodecahydro-3H-cyclopenta[a]phenanthren-17-yl)-2-oxoethyl 4-aminobutanoate [Example 36]”, the Release rate is listed as 2.89 %/day. “Conjugate of HA and 2-((8S,9R,10S,11S,13S,14S,16R,17R)-9-fluoro-11,17-dihydroxy-10,13,16-trimethyl-3-oxo-6,7,8,9,10,11,12,13,14,15,16,17-dodecahydro-3H-cyclopenta[a]phenanthren-17-yl)-2-oxoethyl 6-aminohexanoate [Example 83]” came in with a Release rate of 2.15 %/day. Take “Conjugate of HA and 5-aminopentyl (2-((8S,9R,10S,11S,13S,14S,16R,17R)-9-fluoro-11,17-dihydroxy-10,13,16-trimethyl-3-oxo-6,7,8,9,10,11,12,13,14,15,16,17-dodecahydro-3H-cyclopenta[a]phenanthren-17-yl)-2-oxoethyl) carbonate [Example 87]”: the Release rate is 6.96 %/day.
